Experimental data reported in CN114349851A (SHANGHAI NAI BIOTECHNOLOGY CO LTD, dated 2022).
Changes are numbered by the printed parent chain.

B1: 纳米抗体C5 (C5克隆) (VHH)
VHH: DVQLVESGGGSVQAGGSLRLSCAASGKYSHLGFLGWFRQAPGKEREGVAAGLGAYEDGYYADSVKGRFTVSLDNAENTVYLQMNSLKPEDTALYYCAALVVFSRDSPEFLAQNYWGQGTQVTVSS
notes: also called C5抗体; C5 nanobody
B2: 纳米抗体C5D2 (VHH)
VHH: B1 VHH with K27E, H30Q, G32R, Y55N, V101I, R104H, S106G
B3: 纳米抗体C5G2 (VHH)
VHH: B1 VHH with Y28F, G32V, D57S, F102L, S106N, P107T, L110I, Q112H

Legend:
新冠病毒全长S蛋白 (Spike-trimer) = target: T1, 新冠病毒全长S蛋白 (Spike-trimer) (SARS-CoV-2, UniProt P0DTC2 14-1213); test: BLI (Octet RED96), His-tagged nanobody on Ni-NTA sensor
T1 construct: also called S-FL

Delta(B.1.617.2)突变株RBD蛋白 = target: T2, Delta(B.1.617.2)突变株RBD蛋白 (SARS-CoV-2 Delta (B.1.617.2), UniProt P0DTC2 319-541); test: as above
T2 construct: domain: RBD; also called RBD-Delta; RBD-Delta(B.1.617.2)

B.1.617.1突变株RBD蛋白 = target: T3, B.1.617.1突变株RBD蛋白 (SARS-CoV-2 B.1.617.1, UniProt P0DTC2 319-541); test: ELISA
T3 construct: domain: RBD

| Binder | Kd (新冠病毒全长S蛋白 (Spike-trimer)) | Kd (Delta(B.1.617.2)突变株RBD蛋白) | binding result (B.1.617.1突变株RBD蛋白) |
| --- | --- | --- | --- |
| B1 | 18 nM | – | – |
| B2 | – | 13.1 nM | no binding |
| B3 | – | 83.1 nM | no binding |
